In patent US11098109B2, “Single-chain variable fragment anti-CD133 antibodies and uses thereof” (REGENTS OF THE UNIVERSITY OF MINNESOTA, priority 2010, dated 2021):

How the values were obtained:
human prominin-1 = biological target: T1, human prominin-1 (Homo sapiens, UniProt O43490, DEL381-611); test: ELISA of hybridoma supernatant on recombinant C-prominin-1; assay type: binding; conditions: supernatant at 1:1, 1:10, 1:100, 1:500 dilution
T1 construct: His-tag (6xHis) (N); made in house
T1 sequence (O43490 with tags, fused parts or gaps DEL381-611): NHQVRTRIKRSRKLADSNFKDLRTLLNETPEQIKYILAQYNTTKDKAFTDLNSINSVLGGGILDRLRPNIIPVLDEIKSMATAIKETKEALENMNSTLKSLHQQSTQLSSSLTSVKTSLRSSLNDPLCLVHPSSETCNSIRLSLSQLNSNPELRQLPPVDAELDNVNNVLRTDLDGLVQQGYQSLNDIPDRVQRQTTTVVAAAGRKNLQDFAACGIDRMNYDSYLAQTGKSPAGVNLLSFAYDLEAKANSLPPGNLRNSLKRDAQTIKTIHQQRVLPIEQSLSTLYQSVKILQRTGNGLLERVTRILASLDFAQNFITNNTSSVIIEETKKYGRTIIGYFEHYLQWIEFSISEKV
Description: The hybridoma cells were cultured in DMEM with 10% FBS. When the cells were confluent, they were grown for additional 2-3 days. The supernatant was harvested for ELISA. The recombinant C-prominin-1 protein was coated at a 1:1000 dilution in 96-well plate and incubated at 4° C. ovemight. The coating buffer was discarded, the protein was washed 1 time, 300 μl/well of 5% milk buffer was added, and incubated at 4° C. overnight.
The hybridoma supernatant was diluted with 5% milk buffer at 1:1, 1:10, 1:100, 1:500 and 50 μL/well was added and incubated at 37° C. for one hour. The wells were washed four times, and 50 μL/well goat anti-mouse secondary antibody-HOURP conjugate was added at a dilution of 1:2000 and incubated at 37° C. for one hour. Washed four times, and added 50 μL/well substrate.

CD133 = biological target: T2, CD133 (Homo sapiens, UniProt O43490); test: Flow cytometry of carcinoma lines with FITC-labeled anti-CD133 scFv; assay type: binding
T2 construct: endogenous in cells
T2 sequence (O43490 20-865): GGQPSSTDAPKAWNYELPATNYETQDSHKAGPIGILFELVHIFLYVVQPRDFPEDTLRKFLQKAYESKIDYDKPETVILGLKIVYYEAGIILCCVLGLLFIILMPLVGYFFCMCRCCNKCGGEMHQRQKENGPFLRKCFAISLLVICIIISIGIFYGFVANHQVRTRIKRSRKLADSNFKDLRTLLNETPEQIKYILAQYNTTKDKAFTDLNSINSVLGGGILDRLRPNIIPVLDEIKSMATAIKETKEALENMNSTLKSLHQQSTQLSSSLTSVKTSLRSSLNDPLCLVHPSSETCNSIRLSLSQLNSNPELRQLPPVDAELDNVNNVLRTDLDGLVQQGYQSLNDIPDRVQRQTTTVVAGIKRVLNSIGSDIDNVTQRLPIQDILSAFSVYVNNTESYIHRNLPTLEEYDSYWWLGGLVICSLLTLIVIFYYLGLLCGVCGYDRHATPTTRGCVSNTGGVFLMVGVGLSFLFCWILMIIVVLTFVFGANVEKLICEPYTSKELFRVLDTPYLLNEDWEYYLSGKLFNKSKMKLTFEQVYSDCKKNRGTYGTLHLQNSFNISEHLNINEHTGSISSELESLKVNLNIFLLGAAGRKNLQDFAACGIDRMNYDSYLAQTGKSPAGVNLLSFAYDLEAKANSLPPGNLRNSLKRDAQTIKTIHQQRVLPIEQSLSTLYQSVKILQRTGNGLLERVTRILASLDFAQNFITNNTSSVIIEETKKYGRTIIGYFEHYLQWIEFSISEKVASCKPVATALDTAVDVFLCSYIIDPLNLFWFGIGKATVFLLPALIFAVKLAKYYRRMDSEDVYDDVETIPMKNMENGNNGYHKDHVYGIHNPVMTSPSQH
Description: We detected about 5% CD133 cells/95% CD133-cells in the various carcinomas that we examined. […] The anti-CD133 scFV was labeled with FITC and then standard flow cytometry was performed. The levels of CD133 expression (4-7.1%) are in agreement with values reported values. CaCo-2 colorectal carcinoma is a cell line known to express high levels of CD133+ cells so we included it as a positive control. Anti-CD45-FITC and anti-CD19 FITC are negative controls that preferentially recognize hematopoietic cells.
CD133 expression on UMSCC-11B cells on head and neck cancer cells. CD133 expression was measured on the UMSCC-11B cell line using flow cytometery. Cells were reacted with anti-CD133scFV-FITC for 30 minutes in the dark on ice. Cells were then washed 3× using saline and studied using a flow cytometer (FACScanto™ II, BD Biosciences, Franklin Lakes, N.J.). The blank (untreated cells) was used to establish the gate of non-positive cell activity. CD133 was expressed on both head and neck cancer cell lines, NA and UMSC-11B, at 5.9% and 6% respectively (Table 13). The Caco-2 colorectal carcinoma was included as a positive control cell line since it known to overexpress CD133. Controls included cells reacted with anti-EpCam-FITC, anti-CD45-FITC, and anti-CD19-FITC. Expression of CD45 and CD19 is mostly restricted to normal malignant hematopoietic cells.

B1: Hybridoma Clone 7: monoclonal antibody produced by Hybridoma Clone 7 that specifically binds to human CD133 (antibody, V domains shown)
VL: DIVLSQSPAIMSASPGEKVTISCSASSSVSYMYWYQQKPGSSPKPWIYRTSNLASGVPARFSGSGSGTSYSLTISSMEAEDAATYYCQQYHSYPPTFGAGTKLELK
VH: LEVKLVESGPELKKPGETVKISCKASGYTFTDYSMHWVNQAPGKGLKWMGWINTETGEPSYADDFKGRFAFSLETSASTAYLQINNLKNEDTATYFCATDYGDYFDYWGQGTTLTVSS
Human prominin-1
  reaction of supernatant with human prominin-1 in ELISA: binds its antigen with high specificity and affinity

B2: No. 11 scFv: soluble scFv of the Hybridoma Clone 7 antibody expressed in E. coli Top10F', SEQ ID NO:58; also used FITC-labeled (protein)
scFv: MDIVLSQSPAIMSASPGEKVTISCSASSSVSYMYWYQQKPGSSPKPWIYRTSNLASGVPARFSGSGSGTSYSLTISSMEAEDAATYYCQQYHSYPPTFGAGTKLELKSSGGGGSGGGGGGSSRSSLEVKLVESGPELKKPGETVKISCKASGYTFTDYSMHWVNQAPGKGLKWMGWINTETGEPSYADDFKGRFAFSLETSASTAYLQINNLKNEDTATYFCATDYGDYFDYWGQGTTLTVSS
modifications: optionally FITC-labeled; scFv polypeptide
CD133; BT474, breast
  % Positive Cells, CD133+: 4.0%
CD133; Caco-2, colon, positive control line, listed as anti-CD133 scFV
  % Positive Cells, CD133+: 62.8%
CD133; Caco-2, colon, positive control line, listed as anti-CD133scFV-FITC
  % Positive Cells, CD133+: 80.0%
CD133; MDA-MB231, breast
  % Positive Cells, CD133+: 4.0%
CD133; MDA-MD468, breast
  % Positive Cells, CD133+: 5.2%
CD133; MiaPaCa-2, pancreas
  % Positive Cells, CD133+: 7.1%
CD133; NA, head & neck
  % Positive Cells, CD133+: 5.9%
CD133; SKBR3, breast
  % Positive Cells, CD133+: 4.2%
CD133; UMSCC-11B, head & neck, listed as anti-CD133 scFV
  % Positive Cells, CD133+: 6.0%
CD133; UMSCC-11B, head & neck, listed as anti-CD133scFV-FITC
  % Positive Cells, CD133+: 6%
CD133; various carcinoma lines of Table 1
  levels of CD133 expression: 4-7.1%
